According to the nanobody polyreactivity screen of Harvey et al. (2022):

Experiment: yeast display, Sf9 membrane polyspecificity reagent, FACS + sequencing; frameworks hold sequencing errors
Outline: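 Nanobodies from a synthetic yeast display library (Saccharomyces cerevisiae BJ5465), induced 36–48 hours with galactose, were stained 1 hour at 4 °C with 10% biotinylated, detergent-solubilized Sf9 membrane reagent, enriched on streptavidin microbeads, then FACS-sorted. Anti-HA (expression) and streptavidin (reagent binding) fluorescence set low and high (top ~1%) gates. Polyreactivity labels come from the gate of origin. Genes were colony-PCR amplified, MiSeq 2 × 250 sequenced and filtered by CDR length.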

Sequence	polyreactivity (PSR sort gate)
QVQLVESGGGLVQAGGSLRLSCAASGFIFWENAMGWSRQAPGKERELVAAISKSGTRTYYADSVKGRFTISRDNAKNTVYLQMNSLKPEDTAVYYCAAEGSGYEYYYWGQGTQVTVSS	high polyreactivity
QVQLVESGGGLVQAGGSLRLSCAASGFIFWKNAMGWYRQAPGKERELVAAISWSGGRTYYADSVKGRFTISRDNAKNTVYLQMNSLKPEDTGVYYCDASVGPFPVRGDYWGQGTQVTVSS	low polyreactivity
QVQLVESGGGLVQAGGSLRLSCAASGFIFWKYAKGWYRQAPGKERELVAAISTTGGSTYYADSVKGRFTNSRDNAKNTVYLQMNSLKPEDTAVYYCAAQVGRGYEVYPVYKYGYWGQGTQVTVSS	high polyreactivity
QVQLVESGGGLVQAGGSLRLSCAASGFIFWRNAMGWDRQAPGKDRELVATISRSGGSTYYADSVKGRFTISRDTAKNTVYLQMNSLKPEDTAVYYCATVPWYYWGTHRTLYDYWGQGTQVTVSS	high polyreactivity
QVQLVESGGGLVQAGGSLRLSCAASGFIFWSYAMGWYRQAPGKERELVAAIDLTGGSTYYADSVKGRFTISRDNAKNTVYFQMNSLKPEDTAVYYCNADGDTYAFTNSDSGFDYWGQGTQVTVSS	low polyreactivity
QVQLVESGGGLVQAGGSLRLSCAASGFIFWSYAMGWYRQAPGKERELVAVITSGASTYYADSVKGRFTISRDNAKNTVYLQMNSLKPEDTAVYYSAAEYWVPAWKFGYEYWGQGTQVTVSS	high polyreactivity
QVQLVESGGGLVQAGGSLRLSCAASGFIFWTNTMGWYRQAPGKERELVAAISRSGGSTYYADSVKGRFTISRDNAKNTVYLQMNSLKPEDTAVYYCAKGYRGYSYGYWGQGTQVTVSS	high polyreactivity
QVQLVESGGGLVQAGGSLRLSCAASGFIFWVYALGWYRQAPGKERELVAAITSGGGSTYYADSVKGRFTISRDNAKNSVYLQMNSLKPEDTAVYYCNSVSWEGYDFDYWGQGTQVTVSS	high polyreactivity
QVQLVESGGGLVQAGGSLRLSCAASGFIFWWYAMGWYRQAPGKERELVAGITGSGGTTYYADSVKGRFTISRDNAKNTVYLQMNSLKPEDTAVYYCAARSRSRPKYDYWGQGTQVTVSS	high polyreactivity
QVQLVESGGGLVQAGGSLRLSCAASGFIFWWYAMGWYRQAPGKERELVASISWSGGSTYYADSVKGRFTISRDNAKNTVYLQMNSLKPEDTAVYYCAASRARTIPGPHTNFNYWGQGTQVTVSS	high polyreactivity
QVQLVESGGGLVQAGGSLRLSCAASGFIFWWYAMGWYRQAPGKERELVATITASVGSTNYADSVKGRFTISRDTAKNTVYLQMNSLKPEDTAVYYCATDIIGAIRDWDHTRMDYWGQGTQVTVSS	low polyreactivity
QVQLVESGGGLVQAGGSLRLSCAASGFIFWWYGMGWYRQSPGKEREFVAAITQSGSTYYADSVKGRFTISRDNAKNTVYLQMNSLKPEDTAVYYCAAVVGRRLYPRYDYWGQGTQVTVSS	high polyreactivity
QVQLVESGGGLVQAGGSLRLSCAASGFIFWYYAMGWSRQAPGKERELVAAISGSGGRTYYADSVKGRFTISRDNAKNTVYLQLNSLKPEDTAVYYCNARRAAYYHRARELDYWGEGTQVTVSS	high polyreactivity
QVQLVESGGGLVQAGGSLRLSCAASGFIFWYYAMGWYRQAPGKERELVAAITTSDGSTYYADSVKGRFTISRDNAKNTVYLQMNSLKPEDTAGYYCAADSYYVSYGYYYCGQGTQVTVSS	low polyreactivity
QVQLVESGGGLVQAGGSLRLSCAASGFIFYAYAMGWDRQAPGKERELVAAISRGGGSTYYADSVKGRFTISRDNAKNTVYLQMNSLKPEDTAVYYCAADFYYDRDVDFWGQGTQVTVSS	high polyreactivity
QVQLVESGGGLVQAGGSLRLSCAASGFIFYDYAMGWYRQAPGKERELVAAISSGGSTNYADSVKGRFTISRDNAKNTVYLQMNSLKPEDTAVYYCNVDYGVHVPPRDYWGQGTQVTVSS	low polyreactivity
QVQLVESGGGLVQAGGSLRLSCAASGFIFYDYAMGWYRQAPGKERELVASISWSSGSTYYADSVKGRFTISRDNAKNTVYLQMNSLKPEDTAVYYWAADGYPLQLYNYWGLGTQVTVSS	low polyreactivity
QVQLVESGGGLVQAGGSLRLSCAASGFIFYDYAMGWYRQGPGKERELGAAISSTAFGTYYADSVKGRFTISRDKAKNTVYLQMNILKPEDTAVYYCAAAVSPHSEGFGEYNDWGQGTQVTVSS	low polyreactivity
QVQLVESGGGLVQAGGSLRLSCAASGFIFYDYDMGCYRQAPGKERELVAAITYSGGSTYYADSVKGRFTISRDNAKNTVYLQMNSLKPEDTAVYYCAAVKSRYAEAVDYYYWGQGTQVTVSS	low polyreactivity
QVQLVESGGGLVQAGGSLRLSCAASGFIFYDYDMGWYRQAPGKERELVAAISDGGSTNYADSVKGRFTISRDNAKNTVYLQMNSLKPEDTAVYYCAKDGFVYYDYFQYIEYDYWGQGTQVTVSS	low polyreactivity
QVQLVESGGGLVQAGGSLRLSCAASGFIFYFNAMGWYRQAPGKERELVAAISASGGRTYYADSVKGRFTISRDNAKNTVYLQMNSLIPEDTAVYYCAADIRGYDYWGQGTQVTVSS	high polyreactivity
QVQLVESGGGLVQAGGSLRLSCAASGFIFYGYTMGWYRQAPGKERELVARISRRGGSTYYADSVKGRFTISRDNAKNTVYLQMNSLKPEDTAVYYCAAELRRLFYAYGYWGQGTQVTVSS	low polyreactivity

Sequence	polyreactivity (PSR sort gate)
QVQLVESGGGLVQAGGSLRLSCAASGFIFYKNAMGWYRQAPGKERELVAAISSRGGSTSYADSVKGLFTISRDNAKNTVYLQMNSLKQEDTAVYYCAAYPDYSYFYWGQGTQVTVSS	high polyreactivity
QVQLVESGGGLVQAGGSLRLSCAASGFIFYKYAMGWYRQAPGKERELVAAITSSAGSTYYADSVKGRFTISRDNAKNTVYLQMNSLKPEDTAVYYCAADFHVDYVYWGQGTQVTVSS	high polyreactivity
QVQLVESGGGLVQAGGSLRLSCAASGFIFYLNAMGWYRQAPGKERELVAAISGRGGRTYYADSVKGRFTISRDNAKNTVYLQMNSLKPEDTAVYYCAAQYVPSRYGYWGQGTQVTVSS	high polyreactivity
QVQLVESGGGLVQAGGSLRLSCAASGFIFYLYTMGWYRQAPGKERELVAAIDYSGASTNYADSVKGRFTISRDNAKNTVYVQRNSQKPEDTAVYYCAVNPEVLYHSWTLDYWGQGTQVTVSS	low polyreactivity
QVQLVESGGGLVQAGGSLRLSCAASGFIFYNYAMGLYRQAPGKERELVAAISASGGRTYYADSVKGRFTISRDNAKNTVYLQMNRLKPEDTAVYYCNARVNYKGYDYWGQGTQVTVSS	high polyreactivity
QVQLVESGGGLVQAGGSLRLSCAASGFIFYNYAMGWYRQAPGKERELVAAITSRGGSTYYADSVKGRFTISRDNAKNTVYLQMNSLKPEDTAVYYCAAVKVGDARFVRNDYWGQGTQVTVSS	high polyreactivity
QVQLVESGGGLVQAGGSLRLSCAASGFIFYPNAMGWYRQAPGKERELVAVITGGGSTYYADSVKGLFTISRDNAKNTVYLQMNSLKPEDPAVYYCAARTLRAGYRASGVRRDYWRQGTQVTVSS	high polyreactivity
QVQLVESGGGLVQAGGSLRLSCAASGFIFYRNAMGWYRQAPGKERELVAAISQRGGRTYADSVKGRFTISRDNAKNTVYLQMNSLIPEDTAVYYCAADYLDSTYGYVYGWDDYWGQGTQVTVSS	low polyreactivity
QVQLVESGGGLVQAGGSLRLSCAASGFIFYRNTMGWSRQAPGKEREFVAAIRWRGGSTYYADSVKGRFTISRDNAKNTVYLQMNSLKPEDTAVYYCAADTRPGYSGFEYWGQGTQVTVSS	high polyreactivity
QVQLVESGGGLVQAGGSLRLSCAASGFIFYRNTMGWYRPAPGKEREFVAAIRWRGGSTYYADSVKGRFTISRDNAKNTVYVQMNSLKPEDTAGYYCAADTRPGYSGFEYWGQGTQVTVSS	high polyreactivity
QVQLVESGGGLVQAGGSLRLSCAASGFIFYRNTMGWYRQAPGKEREFVAAIRWRGGSTYYADSVKGRFTISRDNAKNTVYLQMNSLKPEDTAVYYCAADTRPGYSGFEYWGQGTQVTVSS	high polyreactivity
QVQLVESGGGLVQAGGSLRLSCAASGFIFYRYAMGRYRQAPGKERELVAAISWGGGSTTYYADSVKGRFTISRDNAKNTVYLQMNSLKPEDTAVYYCAAYIGKGYGSEYYYWGQGTQVTVSS	low polyreactivity
QVQLVESGGGLVQAGGSLRLSCAASGFIFYRYAMGWYRQAPGKEREFVAVISKSGGRTYYADSVKGRFTISRDNAKNTVYLQMNSLKPEDTAVYYCNRVYRPSRYDYWGQGTQVTVSS	high polyreactivity
QVQLVESGGGLVQAGGSLRLSCAASGFIFYRYAMGWYRQAPGKERELVAAISYSGGSTYYADSVKGRFTISRDNAKNTVYLQMNSLKPEDTAVYYCAAGSKYRYDYWGQGTQVTVSS	high polyreactivity
QVQLVESGGGLVQAGGSLRLSCAASGFIFYRYAMGWYRQAPGKERELVAAITGSGARTYYADSVKGRFTISRDNAKNTVYLQMNSLKPEDTAVYYCNARGYRGYDYWGQGTQVTVSS	high polyreactivity
QVQLVESGGGLVQAGGSLRLSCAASGFIFYRYAMGWYRQEPGKERELVASINYSGGRTYYADSVKGRFTISRDNAKNTVYLQMNSLKPEDTAVYYCNARYKSTYYYWGQGTQVTVSS	high polyreactivity
QVQLVESGGGLVQAGGSLRLSCAASGFIFYRYARGWYRQAPGKEREFVAAITRSAGGTYYADSVKGRFTISRDNAKNTVYLQMNSLKPEDTAVYYCAAVYRSGSRYYLGWYNYWGQGTQVTVSS	high polyreactivity
QVQLVESGGGLVQAGGSLRLSCAASGFIFYRYSMGWYRQAPGIERELVAAIRSSGGSTYYADSVKGRFSISRDNAKNTVYRHMNSLKPQDTAVYYCAKCFSSVLWNGIWPYDYWGQGTQVTVSS	low polyreactivity
QVQLVESGGGLVQAGGSLRLSCAASGFIFYSNAMGWYRQAPGKERELVAAISRGGGSTYYADSVKGRFTISRDNAKNTVYLQMNSLKPEDTAVYYCAKRRLSPQDDYWGQGTQVTVSS	high polyreactivity
QVQLVESGGGLVQAGGSLRLSCAASGFIFYSNAMGWYRQAPGKERELVAAISWDAGSTYYADSVKGRFTISRDNPKNTVYLQMNSLKPEDTAVYYCATDRIVGRYIYNYWGQGTQVTVSS	high polyreactivity
QVQLVESGGGLVQAGGSLRLSCAASGFIFYSYAMGWYRQAPGKERELVAAITSSGGNTYYADSVKGRFTISRDNAKNTGYLQMNSLKPEDTAVYYCNRDRKRGYPYQPYDYWGQGTQVTVSS	high polyreactivity
